Data as given in publication doi:10.1101/2025.03.06.641927, “Constitutively active RAS prolongs Cdc42 signalling while attenuating MAPK signalling during fission yeast mating” (bioRxiv, 2025).
Each block holds one binder with its values, some of them ahead of it.

Legend:
[1] = biological target: T1, His6-Ras1.G17V (1-172), GTP-loaded (fission yeast (Schizosaccharomyces …, UniProt P08647 1-172, G17V)); test: pull-down; GST fusion on glutathione sepharose beads incubated with GTP-loaded Ras1.G17V (1-172) in buffer A (20 mM Tris-Cl pH 7.5, 100 mM NaCl, 5 mM MgCl2, 1 mM beta-mercaptoethanol), 4 C, 30 min; bound fraction on SDS-PAGE, InstantBlue stain; settings: both partners purified
T1 construct: Loaded with GTP by EDTA-mediated exchange (8 mM GTP, 12 mM EDTA, 37 C, 10 min; stopped with 20.5 mM MgCl2) just before the pull-down; Cloned in vector pLEICS1; also called Ras1.G17V^GTP; source: E. coli BL21 Rosetta, purified (Ni Sepharose 6 Fast Flow), dialysed, loaded with GTP
T1 sequence (looked up): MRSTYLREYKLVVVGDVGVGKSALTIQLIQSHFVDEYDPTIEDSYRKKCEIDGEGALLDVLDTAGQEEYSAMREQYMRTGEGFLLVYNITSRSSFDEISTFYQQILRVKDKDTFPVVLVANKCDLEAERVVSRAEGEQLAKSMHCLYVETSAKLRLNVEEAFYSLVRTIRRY

[2] = biological target: T1, His6-Ras1.G17V (1-172), GTP-loaded; test: pull-down; competition: GST-Byr2 (65-180) on glutathione beads incubated with GTP-loaded Ras1.G17V (1-172) with or without Scd1 (760-872) fragment, buffer A, 4 C, 30 min; Ras1.G17V band on SDS-PAGE quantified with Fiji; settings: both partners purified

binding result [1]: binds
B1: GST-Byr2 (65-180) (domain or fragment, UniProt P28829 65-180, looked up)
chain: REFPRPCILRFIACNGQTRAVQSRGDYQKTLAIALKKFSLEDASKFIVCVSQSSRIKLITEEEFKQICFNSSSPERDRLIIVPKEKPCPSFEDLRRSWEIELAQPAALSSQSSLSP
notes: Cloned in vector pLEICS4; also called GST-Byr2-RBD; Byr2-RBD; source: E. coli BL21 Rosetta, purified on glutathione sepharose 4B (kept on the beads); not shown: GST, N-terminal, kept

binding result [1]: binds
B2: GST-Scd1 (760-872) (domain or fragment, UniProt P40995 760-872, looked up)
chain: SSSTSTSLSVRNTTNVKIRLRLHEVSLVLVVAHDITFDELLAKVEHKIKLCGILKQAVPFRVRLKYVDEDGDFITITSDEDVLMAFETCTFELMDPVHNKGMDTVSLHVVVYF
notes: Cloned in vector pLEICS4; also called GST-Scd1-PB1; Scd1-PB1; source: E. coli BL21 Rosetta, purified on glutathione sepharose 4B (kept on the beads); not shown: GST, N-terminal, kept

binding result [2]: binds
B3: Scd1 (760-872) fragment (domain or fragment, UniProt P40995 760-872, looked up)
chain: B2 chain
notes: also called Scd1-PB1 (cleaved from GST); not shown: GST, N-terminal, cleaved
